These binders were tested against T1, Soluble CD28-Ig (extracellular domain of human CD28 fused to the Fc portion of human IgG1) (human, UniProt P10747 19-152, biotin-conjugated (NHS-biotin) in the FACS binding assays) (assay: competitive FACS on transfected cells, biotin-sCD28-Ig with FITC-sCTLA-4-Ig; grade 0-2 of CD28/CTLA-4 ratio vs WT hB7-1).
T1 construct: extracellular domain; bought from R&D Systems; also called sCD28-Ig; CD28-Ig Fc; not shown: Fc portion of human IgG1

| Binder | Binding Score |
| --- | --- |
| Round 2 CD28A6-1 (ligand) ITPKSVTKRVKETVMLSCDYNTSTEELTSLRIYWQKDSKMVLAILPGKVQVWPEYKNRTITDMNDNPRIVILALRLSDSGTYTCVIQKPVLKGAYKLEHLASVRLMIRADFPVPTINDLGNPSPNIRRLICSTSGGFPRPHLYWLENGEELNATNTTVSQDPETKLYMISSELDFNVTNNHSIVCLIKYGELSVSQIFPWSKPKQEPPIDQLPFRVIIPVSGALVLTAIVLYCLACRHVARWKRTRRNEETVGTERLSPIYLGSAQSSG | 1 |
| Round 2 CD28A6-9 (ligand) ITPKSVTKRVKETVMLSCDYNTSTEELTSLRIYWQKDSKMVLAILPGKVQVWPEYKNRTITDMNDNPRIVILALRLSDSGTYTCVIQKPVLKGAYKLEHLASVRLMIRADFPVPTINDLGNPSPNIRRLICSTSGGFPRPHLYWLENGEELNATNTTVSQDPGTELYMISSELDFNVTNNHSIVCLIKYGELSVSQIFPWSKPKQEPPIDQLPFLVIIPVSGALVLTAVVLYCLACRHVARWKRTRRNEETVGTERLSPIYLGSAQSSG | 1 |
| Round 2 CD28B2-8 (ligand) ITPKSVTKRVKETVMLSCDYNTSTEELTSLRIYWQKDSKMVLAILPGKVQVWPEYKNRTITDMNDNPRIVILALRLSDKGTYTCVIQKPVLKGAYKLEHLASVRLMIRADFPVPTINDLGNPSPNIRRLICSTSGGFPRPHLYWLENGEELNATNTTVSQDPGTELYMISSELDFNVTNNHSIVCLIKYGELSVSQIFPWSKPKQEPPIDQLPFWVIIPVSGALVLTAVVLYCLACRHVARWKRTRRNEETVGTERLSPIYLGSAQSSG | 1 |
| Round 2 CD28A8-4 (ligand) ITPKSVTKRVKETVMLSCDYNTSTEELTSLRIYWQKDSKMVLAILPGKVQVWPEYKNRTITDMNDNPRIVILALRLSDSGTYTCVIQKPVLKGAYKLEHLTSVRLMIRADFPVPTINDLGNPSPNIRRLICSTSGGFPRPHLYWLENGEELNATNTTVSQDPGTELYMISSELDFNVTNNHSIVCLIKYGELSVSQIFPWSKPKQEPPIDQLPFWVIIPVSGALVLTAVVLYCLACRHVARWKRTRRNEETVGTERLSPIYLGSAQSSG | 1 |

Other lines, results leading:

| Binding Score | Binder |
| --- | --- |
| 2 | Round 2 CD28BP-2 (ligand) ITPKSVTKRVKETVMLSCDYSTSTEELTSLRIYWQKDSKMVLAILPGKVQVWPEYKNRTITDMNDNPRIVILALRLSDSGTYTCVIQKPVLKGAYKLEHLASVRLMIRADFPVPTINDLGNPSPNIRRLICSTSGGFPRPHLYWLENGEELNATNTTLSQDPETKLYMISSELDFNVTNNHSIVCLIKYGELSVSQIFPWSKPKQEPPIDQLPFWVIIPVSGALVLTAVVLYRPACRHVARWKRTRRNEETVGTERLSPIYLGSAQSSG |
| 2 | Round 2 CD28BP-5 (ligand) ITPKSVTKRVKETVMLSCDYSTSTEELTSLRIYWQKDSKMVLAILPGKVQVWPEYKNRTITDMNDNPRIVILALRLSDKGTYTCVVQKPVLKGAYKLEHLTSVRLMIRADFPVPTINDLGNPSPNIRRLICSTSGGFPRPHLYWLENGEELNATNTTVSQDPGTELYMISSELDFNVTNNHSIVCLIKYGELSVSQIFPWSKPKQEPPIDQLPFWVIIPVSGALVLTAVVLYCLACRHVARWKRTRRNEETVGTERLSPIYLGSAQSSG |
| 2 | Round 2 CD28BP-4 (ligand) ITPKSVTKRVKETVMLSCDYNTSTEELTSLRIYWQKDSKMVLAILPGKVQVWPEYKNRTITDMNDNPRIVILALRLSDSGTYTCVIQKPVLKGAYKLEHLASVRLMIRADFPVPTINDLGNPSPNIRRLICSTSGGFPRPHLCWLENGEELNATNTTVSQDPGTELYMISSELDFNVTNNHSIVCLIKYGELSVSQIFPWSKPKQEPPIDQLPFWVIIPVSGALVLTAVVLYCLACRHVARWKRTRRNEETVGTERLSPIYLGSAQSSG |

Source: patent US20100261660A1 (published 2010)
